Measurements from patent US20180155451A1 (published 2018).
Positions count from the first letter of the chain named. Names and notes keep the numbering of the source.

T1: FcγRIIa R (extracellular domain, C-terminal His tag) (human, UniProt P12318 34-217)
T1 construct: extracellular domain; Soluble receptor used as analyte in Biacore; also called FcgRIIa R; 2aR; not shown: His tag attached to the C terminus
T1 sequence (looked up): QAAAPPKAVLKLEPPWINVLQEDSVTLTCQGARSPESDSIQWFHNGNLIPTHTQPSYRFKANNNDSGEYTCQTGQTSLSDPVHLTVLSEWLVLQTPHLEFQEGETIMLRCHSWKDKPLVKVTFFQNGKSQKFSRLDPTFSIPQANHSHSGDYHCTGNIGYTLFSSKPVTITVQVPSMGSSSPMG

T2: FcgRIIb extracellular domain with C-terminal His tag (human, UniProt P31994 43-217)
T2 construct: extracellular domain; also called FcγRIIb; not shown: His tag attached to the C terminus
T2 sequence (looked up): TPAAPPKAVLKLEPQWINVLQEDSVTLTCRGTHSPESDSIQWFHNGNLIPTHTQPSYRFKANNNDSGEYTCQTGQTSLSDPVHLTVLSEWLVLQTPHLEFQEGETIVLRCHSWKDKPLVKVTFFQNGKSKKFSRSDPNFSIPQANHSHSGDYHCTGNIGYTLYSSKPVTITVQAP

T3: FcgRIIa H extracellular domain with C-terminal His tag (human, UniProt P12318 34-217)
T3 construct: extracellular domain; also called FcγRIIa H; FcγRIIa type H; not shown: His tag attached to the C terminus
T3 sequence (looked up): T1 sequence (looked up) with R134H

T4: FcgRIIa R extracellular domain with C-terminal His tag (human, UniProt P12318 34-217)
T4 construct: extracellular domain; also called FcγRIIa R; FcγRIIa type R; not shown: His tag attached to the C terminus
T4 sequence (looked up): T1 sequence (looked up)

T5: FcγRIIb (extracellular domain, C-terminal His tag) (human, UniProt P31994 43-217)
T5 construct: extracellular domain; Soluble receptor used as analyte in Biacore; also called FcgRIIb; 2b; not shown: His tag attached to the C terminus
T5 sequence (looked up): T2 sequence (looked up)

B1: heterodimerized antibody GpH7-A5/GpH7-B3 variant L328_13S/GpL16-k0 (antibody, human IgG1, kappa)
heavy 1: not shown
heavy 2: not shown
light: DIVMTQSPLSLPVTPGEPASISCQASESLVHSNRNTYLHWYLQKPGQSPQLLIYKVSNRFSGVPDRFSGSGSGTDFTLKISRVEAEDVGVYYCSQNTHVPPTFGQGTKVEIERTVAAPSVFIFPPSDEQLKSGTASVVCLLNNFYPREAKVQWKVDNALQSGNSQESVTEQDSKDSTYSLSSTLTLSKADYEKHKVYACEVTHQGLSSPVTKSFNRGEC
notes: Anti-glypican-3 IgG1 with the alteration in only one H chain (the GpH7-B3 chain); also called He Ab
B2: heterodimerized antibody GpH7-A5/GpH7-B3 variant L328_18N/GpL16-k0 (antibody, human IgG1, kappa)
heavy 1: not shown
heavy 2: not shown
light: B1 light
notes: as for B1
B3: heterodimerized antibody GpH7-A5/GpH7-B3 variant L328_20W/GpL16-k0 (antibody, human IgG1, kappa)
heavy 1: not shown
heavy 2: not shown
light: B1 light
notes: as for B1
B4: heterodimerized antibody GpH7-A5/GpH7-B3 variant I332_11K/GpL16-k0 (antibody, human IgG1, kappa)
heavy 1: not shown
heavy 2: not shown
light: B1 light
notes: as for B1
B5: heterodimerized antibody GpH7-A5/GpH7-B3 variant L328_15Y/GpL16-k0 (antibody, human IgG1, kappa)
heavy 1: not shown
heavy 2: not shown
light: B1 light
notes: as for B1
B6: H240-G1d/L73-k0 (antibody, human IgG1, kappa)
heavy: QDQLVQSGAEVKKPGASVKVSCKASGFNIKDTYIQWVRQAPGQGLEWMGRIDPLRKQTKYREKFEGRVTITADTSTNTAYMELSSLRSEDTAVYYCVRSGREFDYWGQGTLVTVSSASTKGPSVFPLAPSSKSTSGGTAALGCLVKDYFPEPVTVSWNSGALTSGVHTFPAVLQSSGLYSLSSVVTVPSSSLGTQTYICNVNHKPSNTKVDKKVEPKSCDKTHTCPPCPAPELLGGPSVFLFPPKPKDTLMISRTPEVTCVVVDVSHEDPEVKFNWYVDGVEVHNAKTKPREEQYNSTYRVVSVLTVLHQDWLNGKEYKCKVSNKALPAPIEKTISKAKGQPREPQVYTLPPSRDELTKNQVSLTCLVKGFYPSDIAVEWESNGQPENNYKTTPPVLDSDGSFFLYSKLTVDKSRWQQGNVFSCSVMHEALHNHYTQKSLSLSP
light: DIQMTQSPSSLSASVGDRVTITCRASQDIHKYIAWYQQKPGQAPRLLIQYTSTLQPGVPSRFSGSGSGTDYTFTISSLQPEDIATYYCLQYEQLRTFGGGTKVEIKRTVAAPSVFIFPPSDEQLKSGTASVVCLLNNFYPREAKVQWKVDNALQSGNSQESVTEQDSKDSTYSLSSTLTLSKADYEKHKVYACEVTHQGLSSPVTKSFNRGEC
notes: Anti-epiregulin (EREG) IgG1; also called native IgG1 (anti-epiregulin)
B7: H240-Kn033/H240-Hl033/L73-k0 (antibody, human IgG1, kappa)
heavy 1: not shown
heavy 2: not shown
light: B6 light
notes: Knobs-into-holes only (control)
B8: GpH7-Kn045/GpH7-Hl048/GpL16-k0 (antibody, human IgG1, kappa)
heavy 1: QVQLVQSGAEVKKPGASVTVSCKASGYTFTDYEMHWIRQPPGEGLEWIGAIDPKTGDTAYSESFQDRVTLTADKSTSTAYMELSSLTSEDTAVYYCTRFYSYTYWGQGTLVTVSSASTKGPSVFPLAPSSKSTSGGTAALGCLVKDYFPEPVTVSWNSGALTSGVHTFPAVLQSSGLYSLSSVVTVPSSSLGTQTYICNVNHKPSNTKVDKKVEPKSCDKTHTCPPCPAPEYYAGPSVFLFPPKPKDTLMISRTPEVTCVVVDVSDEDPEVKFNWYVDGVEVHNAKTKPREEQYNATYRVVSVLTVLHQDWLNGKEYKCKVSNKALPAPIEKTISKAKGQPREPQVCTLPPSRDELTKNQVSLWCLVKGFYPSDIAVEWESNGQPENNYKTTPPVLDSDGSFFLYSKLTVDKSRWQQGNVFSCSVMHEALHNHYTQKSLSLSP
heavy 2: QVQLVQSGAEVKKPGASVTVSCKASGYTFTDYEMHWIRQPPGEGLEWIGAIDPKTGDTAYSESFQDRVTLTADKSTSTAYMELSSLTSEDTAVYYCTRFYSYTYWGQGTLVTVSSASTKGPSVFPLAPSSKSTSGGTAALGCLVKDYFPEPVTVSWNSGALTSGVHTFPAVLQSSGLYSLSSVVTVPSSSLGTQTYICNVNHKPSNTKVDKKVEPKSCDKTHTCPPCPAPELLAGPDVFLFPPKPKDTLMISRTPEVTCVVVDVSHEDPEVKFNWYVDGVEVHNAKTKPREEQYNSTYRVVSVLTVLHQDWLNGKEYKCKVSNKALPKPEEKTISKAKGQPREPQVYTLPPSRCELTKNQVSLSCAVKGFYPSDIAVEWESNGQPENNYKTTPPVLDSDGSFFLVSKLTVDKSRWQQGNVFSCSVMHEALHNHYTQKSLSLSP
light: B1 light
notes: Knob chain L234Y/L235Y/G236A/H268D/S298A; hole chain G236A/S239D/A330K/I332E; also called Kn045/Hl048
B9: GpH7-Kn045/GpH7-Hl055/GpL16-k0 (antibody, human IgG1, kappa)
heavy 1: B8 heavy 1
heavy 2: B8 heavy 2 with Q293L, K328M
light: B1 light
notes: Knob chain L234Y/L235Y/G236A/H268D/S298A; hole chain G236A/S239D/Q295L/A330M/I332E; also called Kn045/Hl055
B10: GpH7-Kn056/GpH7-Hl055/GpL16-k0 (antibody, human IgG1, kappa)
heavy 1: B8 heavy 1 with Q293L
heavy 2: B8 heavy 2 with Q293L, K328M
light: B1 light
notes: Knob chain L234Y/L235Y/G236A/H268D/Q295L/S298A; hole chain G236A/S239D/Q295L/A330M/I332E; also called Kn056/Hl055

biological target: T1, FcγRIIa R (extracellular domain, …); assay: SPR (Biacore); He/Con for FcγRIIa R divided by He/Con for FcγRIIb
Protocol: (§1) The heterodimerized antibodies He Abs in which one of the H chains was introduced with an alteration were assayed for their binding activities to each activating FcγR and inhibitory FcγR according to the method described in Example 4. […] The activating FcγRs in FIGS. 26, 27, 28, and 29 are FcγRIa, FcγRIIa (R), FcγRIIa (H), and FcγRIIIa, respectively.
(§2) Analysis of interaction between objective antibody and the FcγR was carried out using Biacore T100 (GE Healthcare). HBS-EP+ (GE Healthcare) was used as the running buffer, and the measurement temperature was set to 25° C. Chips produced by immobilizing the antigen peptide by the amine coupling method to a Series S Sencor Chip CM5 (GE Healthcare), or alternatively, chips produced by allowing preliminarily biotinylated antigen peptides to interact with and immobilize onto a Series S Sensor Chip SA (certified) (GE Healthcare) were used. Antibodies of interest were captured onto an antigen peptide-immobilized chip, and allowed to interact to each FcγR diluted with running buffer. To regenerate and repeatedly use the chip, the antibodies captured on the chip were washed off by reacting 10 mM glycine-HCl, pH 1.5.

| He_2aR/2b (IIaR/IIb) | Binder |
| --- | --- |
| 0.78 ratio | B1 |
| 0.73 ratio | B2 |
| 0.66 ratio | B3 |
| 0.61 ratio | B4 |
| 0.7 ratio | B5 |

biological target: T2, FcgRIIb extracellular domain with …; assay: SPR (Biacore), antibody captured on chip, FcγR extracellular domain as analyte, kinetic analysis
Protocol: (§3) Analysis of interaction between obj ective antibody and the FcγR was carried out using Biacore T100 (GE Healthcare), Biacore T200, Biacore A100, and Biacore 4000. HBS-EP+ (GE Healthcare) was used as the running buffer, and the measurement temperature was set to 25° C. Chips produced by immobilizing the antigen peptide by the amine coupling method to a Series S sensor Chip CM5 (GE Healthcare), chips produced by allowing preliminarily biotinylated antigen peptides to interact with and immobilize onto a Series S Sensor Chip SA (certified) (GE Healthcare), chips produced by immobilizing Protein L (ACTIGEN, BioVision) to Series S Sencor Chip CM5 (GE Healthcare), or chips produced by immobilizing Protein A/G (Thermo Scientific) to Series S Sencor Chip CM5 (GE Healthcare) were used. Antibodies of interest were captured onto these chips, and allowed to interact to each FcγR diluted with running buffer. To regenerate and repeatedly use the chip, the antibodies captured onto the chip were washed off by reacting 10 mM glycine-HCl, pH 1.5.

| Kd | Binder |
| --- | --- |
| 6000 nM | B6 |
| 4100 nM | B7 |

biological target: T3, FcgRIIa H extracellular domain with …; assay: as above
Protocol: as §3

| Kd | Binder |
| --- | --- |
| 660 nM | B6 |
| 930 nM | B7 |

biological target: T4, FcgRIIa R extracellular domain with …; assay: as above
Protocol: as §3

| Kd | Binder |
| --- | --- |
| 880 nM | B6 |
| 1000 nM | B7 |

biological target: T6, FcgRIa extracellular domain with C-terminal His tag (human, UniProt P12314 16-292); assay: as above
T6 construct: extracellular domain; Expressed in FreeStyle293 cells; used as analyte in Biacore; also called FcγRIa; FcγRI; not shown: His tag attached to the C terminus
Protocol: as §3

T6 sequence (P12314 16-292): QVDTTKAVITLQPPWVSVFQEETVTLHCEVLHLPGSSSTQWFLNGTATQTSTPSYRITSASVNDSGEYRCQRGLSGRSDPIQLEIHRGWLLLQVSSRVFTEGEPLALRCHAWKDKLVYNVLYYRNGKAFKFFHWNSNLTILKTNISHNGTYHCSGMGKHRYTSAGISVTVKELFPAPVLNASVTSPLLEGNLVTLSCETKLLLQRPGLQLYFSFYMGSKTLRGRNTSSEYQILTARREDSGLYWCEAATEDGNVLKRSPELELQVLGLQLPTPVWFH

| Kd | Binder |
| --- | --- |
| 0.23 nM | B6 |
| 0.25 nM | B7 |

biological target: T7, FcgRIIIa V extracellular domain with C-terminal His tag (human, UniProt P08637 17-208); assay: as above
T7 construct: extracellular domain; also called FcγRIIIa V; FcγRIIIa (V158); not shown: His tag attached to the C terminus
Protocol: as §3

T7 sequence (P08637 17-208 F176V): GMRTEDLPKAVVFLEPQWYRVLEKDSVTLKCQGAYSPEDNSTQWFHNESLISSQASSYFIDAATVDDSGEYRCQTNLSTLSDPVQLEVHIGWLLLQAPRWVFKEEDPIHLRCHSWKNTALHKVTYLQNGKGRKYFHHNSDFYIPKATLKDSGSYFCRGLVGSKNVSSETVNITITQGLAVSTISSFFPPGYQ

| Kd | Binder |
| --- | --- |
| 310 nM | B6 |
| 390 nM | B7 |

biological target: T8, FcgRIIIa F extracellular domain with C-terminal His tag (human, UniProt P08637 17-208); assay: as above
T8 construct: extracellular domain; also called FcγRIIIa F; FcγRIIIa (F158); not shown: His tag attached to the C terminus
Protocol: as §3

T8 sequence (P08637 17-208): as the sequence (P08637 17-208 F176V) above, with V160F counted along it

| Kd | Binder |
| --- | --- |
| 1400 nM | B6 |
| 2600 nM | B7 |

biological target: T3, FcgRIIa H extracellular domain with …; assay: ratio of SPR (Biacore) KDs, FcγRIIb as reference; antibody captured on chip, FcγR as analyte
Protocol: (§4) These antibodies were assessed for the binding activity to each FcγR according to the method described in Reference Example 2.
as §2
(§5) The FcγR-binding activity of each antibody was assessed primarily using as an indicator the FcγR-binding activity and dissociation constant for FcγR.

| A/I ratio (KD for FcγRIIb / KD for FcγRIIa H) | Binder |
| --- | --- |
| 9.5 | B8 |
| 8.3 | B9 |
| 8.7 | B10 |

biological target: T4, FcgRIIa R extracellular domain with …; assay: as above
Protocol: as §4, §2, §5

| A/I ratio (KD for FcγRIIb / KD for FcγRIIa R) | Binder |
| --- | --- |
| 22 | B8 |
| 18 | B9 |
| 16 | B10 |

biological target: T1, FcγRIIa R (extracellular domain, …); assay: SPR (Biacore T100), antibody captured on antigen peptide chip, FcγR as analyte; relative binding amount
Protocol: as §1, §2

| He/Con_2aR (IIaR binding) | Binder |
| --- | --- |
| 117 % of control (GpH7-A5/GpH7-B3/GpL16-k0 = 100) | B1 |
| 59.4 % of control (GpH7-A5/GpH7-B3/GpL16-k0 = 100) | B2 |
| 155 % of control (GpH7-A5/GpH7-B3/GpL16-k0 = 100) | B3 |
| 43.1 % of control (GpH7-A5/GpH7-B3/GpL16-k0 = 100) | B4 |
| 136 % of control (GpH7-A5/GpH7-B3/GpL16-k0 = 100) | B5 |

biological target: T5, FcγRIIb (extracellular domain, …); assay: as above
Protocol: as §1, §2

| He/Con_2b (IIb binding) | Binder |
| --- | --- |
| 149 % of control (GpH7-A5/GpH7-B3/GpL16-k0 = 100) | B1 |
| 80.8 % of control (GpH7-A5/GpH7-B3/GpL16-k0 = 100) | B2 |
| 235 % of control (GpH7-A5/GpH7-B3/GpL16-k0 = 100) | B3 |
| 70.9 % of control (GpH7-A5/GpH7-B3/GpL16-k0 = 100) | B4 |
| 193 % of control (GpH7-A5/GpH7-B3/GpL16-k0 = 100) | B5 |
